Values of other authors in publication PMC4496705.

Columns and labels:
SKIP (Homo sapiens) = SKIP (Homo sapiens) (UniProt Q13573); assay: SPR
[1] = biological target: hPrp4 peptide (Homo sapiens) (UniProt O43172); assay: ITC
Sequence of UniProt O43172 (O43172 whole entry): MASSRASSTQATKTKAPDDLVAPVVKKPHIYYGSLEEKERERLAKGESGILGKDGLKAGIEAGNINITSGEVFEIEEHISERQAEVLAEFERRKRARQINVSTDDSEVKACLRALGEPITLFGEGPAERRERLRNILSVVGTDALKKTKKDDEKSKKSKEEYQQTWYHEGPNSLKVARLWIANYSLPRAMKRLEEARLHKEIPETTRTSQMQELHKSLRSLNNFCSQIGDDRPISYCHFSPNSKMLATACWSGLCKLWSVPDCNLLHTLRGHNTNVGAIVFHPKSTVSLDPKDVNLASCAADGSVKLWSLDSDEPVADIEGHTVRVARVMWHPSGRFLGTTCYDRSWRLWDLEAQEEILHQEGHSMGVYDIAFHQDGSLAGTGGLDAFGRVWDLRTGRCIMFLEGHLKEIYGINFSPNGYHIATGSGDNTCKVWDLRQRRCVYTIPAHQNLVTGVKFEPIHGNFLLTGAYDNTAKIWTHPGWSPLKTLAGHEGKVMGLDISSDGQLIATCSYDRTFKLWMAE

Sequence of UniProt Q13573 (Q13573 2-536): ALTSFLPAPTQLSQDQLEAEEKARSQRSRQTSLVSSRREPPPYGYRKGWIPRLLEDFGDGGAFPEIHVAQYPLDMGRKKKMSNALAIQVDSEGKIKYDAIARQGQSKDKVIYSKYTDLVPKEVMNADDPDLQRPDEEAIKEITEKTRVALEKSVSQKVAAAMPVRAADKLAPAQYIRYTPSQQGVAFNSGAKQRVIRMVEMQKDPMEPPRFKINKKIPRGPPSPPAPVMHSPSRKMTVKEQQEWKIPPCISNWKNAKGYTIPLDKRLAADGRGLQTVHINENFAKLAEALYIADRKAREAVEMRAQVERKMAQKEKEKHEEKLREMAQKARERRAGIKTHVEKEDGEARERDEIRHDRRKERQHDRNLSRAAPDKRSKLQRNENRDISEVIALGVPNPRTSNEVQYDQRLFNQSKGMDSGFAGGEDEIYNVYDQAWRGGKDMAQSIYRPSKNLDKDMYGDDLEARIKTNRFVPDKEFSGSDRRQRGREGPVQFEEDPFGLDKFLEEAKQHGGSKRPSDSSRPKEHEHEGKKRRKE

Substance: PPIL1 (from UniProt Q9Y3C6)
- Kd (SKIP (Homo sapiens)): 125 nM

Substance: PPIH (from UniProt O43447)
- Kd [1]: 1970 nM
